From US20260115332A1, “Fibroblast Activation Protein Alpha-Cleavable Pro-Peptides and Methods of Use” (The Regents of the University of California, priority 2022, published 2026)
Where no end group is shown, it is not given here.

Columns and labels:
recombinant human FAPα [1] = target: T1, recombinant human FAPα (Homo sapiens, UniProt Q12884); test: Multiplex substrate profiling by mass spectrometry (MSP-MS); type: biochemical; settings: for # of cleavages on MS: top P4-P4′ peptides cleaved by human FAP alpha; for # of cleavages on MSP-MS: human FAP alpha
T1 sequence (Q12884 26-760 limits assumed): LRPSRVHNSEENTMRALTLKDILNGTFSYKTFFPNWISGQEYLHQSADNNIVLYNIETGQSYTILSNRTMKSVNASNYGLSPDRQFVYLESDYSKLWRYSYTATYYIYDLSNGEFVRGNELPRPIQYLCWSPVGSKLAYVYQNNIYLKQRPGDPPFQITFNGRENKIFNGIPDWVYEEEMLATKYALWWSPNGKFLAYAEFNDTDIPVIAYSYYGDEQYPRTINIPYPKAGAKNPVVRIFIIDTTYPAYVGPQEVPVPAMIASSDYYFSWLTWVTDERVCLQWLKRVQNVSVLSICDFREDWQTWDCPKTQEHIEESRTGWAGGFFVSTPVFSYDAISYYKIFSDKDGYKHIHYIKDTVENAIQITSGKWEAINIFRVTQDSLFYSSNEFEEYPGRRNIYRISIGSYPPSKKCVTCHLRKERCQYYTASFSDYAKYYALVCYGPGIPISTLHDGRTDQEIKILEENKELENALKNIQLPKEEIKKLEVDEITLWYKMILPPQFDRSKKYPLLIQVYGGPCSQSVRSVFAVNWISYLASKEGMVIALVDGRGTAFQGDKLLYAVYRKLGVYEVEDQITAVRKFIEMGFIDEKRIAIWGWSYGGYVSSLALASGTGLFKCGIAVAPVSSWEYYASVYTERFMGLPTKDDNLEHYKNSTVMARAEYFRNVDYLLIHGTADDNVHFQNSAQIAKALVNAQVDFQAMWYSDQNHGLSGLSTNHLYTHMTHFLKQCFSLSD
Description: Although much is known about the substrate preferences for FAPα from P4-P1, an optimal P4-P4′ substrate sequence for FAPα has never been defined. In this example, multiplex substrate profiling by mass spectrometry (MSP-MS) was performed to identify candidate FAPα P4-P4′ substrate sequences for potential inclusion in a FAPα targeted restricted interaction peptide (or “FRIP”).
Shown on the top of FIG. 3 is an Icelogo representing the cumulative amino acid preferences for recombinant human FAPα. Shown on the bottom of FIG. 3 is a heat map summarizing the amino acids that were most frequently incorporated at each site in the cleavage products. Lighter indicates an enriched amino acid. X=no preferred amino acid.
A list of the top P4-P4′ peptides cleaved by human FAP alpha as determined using the MSP-MS substrate profiling technology are shown in the following table, where X indicates an undefined amino acid site.

recombinant human FAPα [2] = target: T1, recombinant human FAPα; test: Kinetics of FRET donor/acceptor 8 mer substrates under Michaelis-Menten conditions; type: biochemical; settings: FRET donor/acceptor substrate adducts, human recombinant FAP alpha
Description: Three top hits, […] (SEQ ID NO:38), […] (SEQ ID NO:40), and […] (SEQ ID NO:42), were selected for further analysis. An 8 mer peptide bearing FRET donor-acceptor dyes on the N and C terminus was synthesized and evaluated as a substrate for recombinant human FAPα (RND Systems) under Michaelis-Menten conditions.
A table summarizing the kinetic properties of three of the top P4-P4′ 8 mer peptides emerging from the MSP-MS assay is provided below, where the kinetic properties were determined using FRET donor/acceptor substrate adducts and human recombinant FAP alpha.

| Molecule | # of cleavages on MS (recombinant human FAPα [1]) | other results |
| --- | --- | --- |
| CN(CCCN1CCN(C(=O)CN2CCN(CC(=O)O)CCN(CC(=O)O)CCN(CC(=O)O)CC2)CC1)c1ccc2nccc(C(=O)NCC(=O)N3CC(F)(F)C[C@H]3C#N)c2c1 [FAPI 46] | – | Tumor dose (Tumor dose per isotope; Ac-225): 720 Gy/mCi; Tumor dose (Tumor dose per isotope; Cu-64): 2 Gy/mCi; Tumor dose (Tumor dose per isotope; Cu-67): 11 Gy/mCi; Tumor dose (Tumor dose per isotope; Lu-177): 16 Gy/mCi; Tumor dose (Tumor dose per isotope; Y-90): 42 Gy/mCi |
| GMGPFHIV | 12 | – |
| HIGPTAAY (also: FRET fluorophore/quencher labels) [tested as 8 mer FRET peptide] | 43 | # of cleavages on MSP-MS (recombinant human FAPα [1]): 43; Km (recombinant human FAPα [2]): 2.45 µM; kcat (recombinant human FAPα [2]): 0.2986 s⁻¹ |
| HQGPFWML (also: FRET labels) [tested as 8 mer FRET peptide] | 30 | # of cleavages on MSP-MS (recombinant human FAPα [1]): 30; Km (recombinant human FAPα [2]): 1.34 µM; kcat (recombinant human FAPα [2]): 0.1041 s⁻¹ |
| HYGPTVNK (also: FRET labels) [tested as 8 mer FRET peptide] | 28 | # of cleavages on MSP-MS (recombinant human FAPα [1]): 28; Km (recombinant human FAPα [2]): 2.7 µM; kcat (recombinant human FAPα [2]): 0.04031 s⁻¹ |
| XSGPDYQK | 14 | – |
| XXFPNMWS | 23 | – |
| XXGPKLTY | 28 | – |
| XXGSQVFS | 21 | – |
| XXHPTKSF | 16 | – |
| XXIARQPW | 14 | – |
| XXIPTNIR | 41 | – |
| XXMPEEVA | 17 | – |
| XXWPMGMY | 26 | – |
| YHGPLAHX | 98 | – |
